Results: the nanobody polyreactivity screen of Harvey et al. (2022)

assay: yeast display, Sf9 membrane polyspecificity reagent, FACS + sequencing; frameworks hold sequencing errors
Procedure, shortened: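 A synthetic nanobody library was expressed on Saccharomyces cerevisiae BJ5465 by galactose induction for 36–48 hours. The library was stained for 1 hour at 4 °C with 10% biotinylated, detergent-solubilized Sf9 membrane reagent and enriched with streptavidin microbeads before FACS. Low and high (top ~1%) gates were set on anti-HA fluorescence for expression and streptavidin fluorescence for reagent binding, and each polyreactivity label reflects the gate of origin.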

Question: For “QVQLVESGGGLVQAGGSLRLSCAASGRTFAWYTMGWYRQAPGKERELVAAISGSGGSTYYADSVKGRFTISRDNAKNTVYLQMNSLKPEDTAVYYCSRRVDSYYGHTRYYYWGQGTQVTVSS”, which “polyreactivity (PSR sort gate)” value is on record?
Answer: high polyreactivity

Question: For “QVQLVESGGGLVQAGGSLRLSCAASGRTFAYHTMGWYRQAPGKERELVARINSGTSTYYADSVKGRFTISRDNEKNTVYLQMNSLKPEDTAVYYCAARGSESIRWYVGGRYGYWGQGTQVTVSS”, which “polyreactivity (PSR sort gate)” value is on record?
Answer: low polyreactivity

Question: With “QVQLVESGGGLVQAGGSLRLSCAASGRTFAYNAMGWYRPAPGKEREFVAGISRSGGSTYYADSVKGRFTISRDNAKNTVYLQMNSLKPEDTAVYYCAAQFYALPNVGTKYYSWGQGTQVTVSS” as the sequence, how does the “polyreactivity (PSR sort gate)” value read?
Answer: low polyreactivity

Question: For “QVQLVESGGGLVQAGGSLRLSCAASGRTFAYNAMGWYRQAPGKERELVADITSGGSTYYADSVKGRFTISRDNAKNTVYLQMNSLKPEDTAVYYCAAYPQFWYWDYNYWGQGTQVTVSS”, which “polyreactivity (PSR sort gate)” value is on record?
Answer: high polyreactivity

Question: With “QVQLVESGGGLVQAGGSLRLSCAASGRTFAYNAMGWYRQAPGKERELVASITSGGSTNYADSVKGRFTISRDNAKNTVYLQKNSLKPEDTAVYYCNKDGKYHRVLYDYWGLGTQVTVSS” as the sequence, how does the “polyreactivity (PSR sort gate)” value read?
Answer: low polyreactivity

Question: Which “polyreactivity (PSR sort gate)” value does the source give for “QVQLVESGGGLVQAGGSLRLSCAASGRTFAYNAMGWYRQAPGKERELVASITSGGSTNYADSVKGRFTISRDNAKNTVYLQMNSLKPEDTAVFYCNKDGKYHRVLYDYWGQGTQVTVSS” here?
Answer: low polyreactivity

Question: With “QVQLVESGGGLVQAGGSLRLSCAASGRTFAYNTMGWYRQAPGKERELVAAITWSGGGTYYADSVKGRFTISRDNAKNTVYLQMNRLKPEDTAVYFCAVEYASPRARYRYYYWGQGTQVSVSS” as the sequence, how does the “polyreactivity (PSR sort gate)” value read?
Answer: low polyreactivity

Question: Which “polyreactivity (PSR sort gate)” value does the source give for “QVQLVESGGGLVQAGGSLRLSCAASGRTFAYNTMGWYRQAPGKERELVARINSGTSTYYADSVKGRFTISRDNAKNTVYLQMNRLKPEDTAVYYCNAYSWYGYDYWGQGTQVTVSS” here?
Answer: high polyreactivity

Question: Which “polyreactivity (PSR sort gate)” value does the source give for “QVQLVESGGGLVQAGGSLRLSCAASGRTFAYYAMGWYLQAPGKERELVAAISSGGGSTYYADSVKGRFTISRDNAKNTVYLQMNSLKPEDTAVYYCNKGFNYGGWFKKYGYWGQGTQVTVSS” here?
Answer: high polyreactivity

Question: Which “polyreactivity (PSR sort gate)” value does the source give for “QVQLVESGGGLVQAGGSLRLSCAASGRTFCSYAMGWYRQAPGKERELVAAIRYRGGSTYYADSVKGRFTISRDNAKNTVDLQMNSLKPEDTAVYYCATNTWYYYQRMYYWGQGTQVTVSS” here?
Answer: high polyreactivity

Question: For “QVQLVESGGGLVQAGGSLRLSCAASGRTFDANAMGWYRPAPGKERELVAAISSDGSTNYADSVKGRFTISRDNAKNTVYLQMNSLKPEDTAVYYCATDGKPLIRYDYDYWGQGTQVTVSS”, which “polyreactivity (PSR sort gate)” value is on record?
Answer: high polyreactivity

Question: For “QVQLVESGGGLVQAGGSLRLSCAASGRTFDFYAMGWYRQAPGKERELVAAISSRGGSTYYADSVKGRFTISRDNAKNTVYLQMNSLKAEDTAVYYCAKDLGYRGRYNYWGQGTQVTVSS”, which “polyreactivity (PSR sort gate)” value is on record?
Answer: low polyreactivity

Question: For “QVQLVESGGGLVQAGGSLRLSCAASGRTFDGYAMGWYSQAPGKERELVAALSSRSGRTYYADSVKGRFTISRDNAKNTVYLQMNSLKPEDTAGYYCAAVNKPRSEDYGYWGQGTQVTVSS”, which “polyreactivity (PSR sort gate)” value is on record?
Answer: high polyreactivity

Question: Which “polyreactivity (PSR sort gate)” value does the source give for “QVQLVESGGGLVQAGGSLRLSCAASGRTFDGYTLGGYRQAPGKERELVAAISTGGGSTYYADSVKGRFTISRDNAKNTVYVQLNSLKPEDTAVYDCAARGGSYSFRRYNYWGQGTQVTVSS” here?
Answer: high polyreactivity

Question: Which “polyreactivity (PSR sort gate)” value does the source give for “QVQLVESGGGLVQAGGSLRLSCAASGRTFDHYAMGWYRQAPGKERELVAAITSGGSTYYADSVKGRFTISRDNAKNTVYLQMNSLKPEDTAVYYCNKDSSFWGCYIAQVNERDYWGQGTQVTVSS” here?
Answer: low polyreactivity

Question: For “QVQLVESGGGLVQAGGSLRLSCAASGRTFDINDMGWYRQAPGKEREFVAAIDWSGGYTYYADSVKGRFIISRDNAKNTVYLQMNSQKPEDTAVYYCNARRKRSYDYWGQGTQGTVSS”, which “polyreactivity (PSR sort gate)” value is on record?
Answer: low polyreactivity

Question: For “QVQLVESGGGLVQAGGSLRLSCAASGRTFDINTMGWYRQAPGKERELVARISGRGGSTYYADSVKGRFTISRDNAKNTVYLLMNSLKPEYTAVYYCNALGRSVLPQPIGDYWGQGTQVTVSS”, which “polyreactivity (PSR sort gate)” value is on record?
Answer: high polyreactivity

Question: With “QVQLVESGGGLVQAGGSLRLSCAASGRTFDIYAMGWYRQAPGKERELVAAISSGGSTYYADSVKGRFTISRDNAKNTVYLQMNRLKPEDTAVYYCAVRWYDQVSRRGIGYYWGQGTQVTVSS” as the sequence, how does the “polyreactivity (PSR sort gate)” value read?
Answer: low polyreactivity

Question: Which “polyreactivity (PSR sort gate)” value does the source give for “QVQLVESGGGLVQAGGSLRLSCAASGRTFDKYAMGWYRQAPGKERELVAAISYDAGRTYYADSVKGRFTISRDNAKNTVYLQMNSLKPEDTAVYYCNAVRFRGFGWGQGTQVTVSS” here?
Answer: high polyreactivity

Question: For “QVQLVESGGGLVQAGGSLRLSCAASGRTFDLYAMGWYRQAPGKERELVARITNIDDSTYYADSVKGRFTISRDNAKNTVYLQMNSLKPEDTAVYYCNAASYSRGPARYDYWGQGTQVTVSS”, which “polyreactivity (PSR sort gate)” value is on record?
Answer: high polyreactivity

Question: For “QVQLVESGGGLVQAGGSLRLSCAASGRTFDSNAMGWYRQAPGKERELVAAISYSGGSTYYADSVKGRFTISRDNAKNTVYLQMNSLKPEDTAVYYCNAGDVHKKPARDYWGQGTQVTVSS”, which “polyreactivity (PSR sort gate)” value is on record?
Answer: low polyreactivity

Question: Which “polyreactivity (PSR sort gate)” value does the source give for “QVQLVESGGGLVQAGGSLRLSCAASGRTFDSYTMGWYRQAPGKERELVAAIRSSGGRTYADSVKGRFTISRDNAKNTVYLQMNSLKPEDTAVYYCAAARSYWAKYYYWGQGTQVTVSS” here?
Answer: high polyreactivity

Question: With “QVQLVESGGGLVQAGGSLRLSCAASGRTFDVYAMGWYRQAPGKEMELVAAITRRGGSTYYADSVKGRFTISRDNAKNTVNLQMNRLKPEDTAVYYCSAAYSRGSGVGRYRLDYWGKGTQVTVSS” as the sequence, how does the “polyreactivity (PSR sort gate)” value read?
Answer: high polyreactivity

Question: For “QVQLVESGGGLVQAGGSLRLSCAASGRTFDVYAMGWYRQAPGKEREFVASITRSGASTYADSVKGRFTISRDNAKNTVYLQMNSLKPEDTAVYYCNAELDLDTGWDGFVAYDYWGQGTQVSVSS”, which “polyreactivity (PSR sort gate)” value is on record?
Answer: low polyreactivity

Question: With “QVQLVESGGGLVQAGGSLRLSCAASGRTFDVYAMGWYRQAPGKERELVAAITSGGSTYYADSVKGRFTISRDNAKNTVYLQMNSLKPEDTAVYYCAKASSATRYVQLRQDYDYWGQGTQVTVSS” as the sequence, how does the “polyreactivity (PSR sort gate)” value read?
Answer: low polyreactivity

Question: With “QVQLVESGGGLVQAGGSLRLSCAASGRTFDVYAMGWYRQAPGKERELVAAITSGGSTYYADSVKGRFTISRDNAKNTVYLQMNSLKPEDTAVYYCATDVDKSLYDYWGQGTQVTVSS” as the sequence, how does the “polyreactivity (PSR sort gate)” value read?
Answer: low polyreactivity

Question: Which “polyreactivity (PSR sort gate)” value does the source give for “QVQLVESGGGLVQAGGSLRLSCAASGRTFDVYAMGWYRQAPGKERELVATIRSDGSTTYADSVKGRFTISRDNAKNTVYLQMTSLKPEDTAVYYCAADFRSGFSSSTTPVQSDWGQGTQVTVSS” here?
Answer: low polyreactivity

Question: For “QVQLVESGGGLVQAGGSLRLSCAASGRTFDVYAMGWYRQAPGKERELVATISYRSARTYYADSVKGRFTISRDNAKNTVYLQMNSLKPEDTAVYYCAAYFETWHGFGYWGQGTQVTVSS”, which “polyreactivity (PSR sort gate)” value is on record?
Answer: high polyreactivity

Question: For “QVQLVESGGGLVQAGGSLRLSCAASGRTFDWNAMGWYRQAPGKERELVAAITYSGGGTYYADSVKGRFTISRDNAKNTVYLQMNSLKPEDTAVYYCAAGYPGTWSYYYWGQGTQVTVSS”, which “polyreactivity (PSR sort gate)” value is on record?
Answer: low polyreactivity

Question: For “QVQLVESGGGLVQAGGSLRLSCAASGRTFDWYAMGWYRQAPGKERELVAVITGRGGSTYYADSVKGRFTISRDNAKNTVYLQMNSLKPEDTAVYYCAVDRLRYRLGFGFKFDYWGQGTQVTVSS”, which “polyreactivity (PSR sort gate)” value is on record?
Answer: low polyreactivity
